Protein production data for 18 sequences are collected here from a protein production outcome set (Wang et al. 2014).
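Further: failed if final PepcDB status was selected cloned or expressed and not failed if soluble or beyond.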

The data set is described as follows: label from the status in PepcDB records.
Take “MKLSILKNSMNSGKAVLFIVTGIIGLLIAIGTMLLFSFYPTEQNVSQSILYITFALWTVGWVLGPIIAGGDGILRSEYFVLLPFTSYKLARALLVVAFIGLGPIVSLIAFIGLFIYAARVSLSATIVAIPAIILQLIFVVLLSKVVVSIIGETLKSRIGMEVGAMLFGFIIAFLNVGWYVLPTINKMTLSDSTLLYMFPSSWAILAVEYAIQSNWLLVLVFLIVLTILCGLLFFIWATLLMKSTETKKIEGRITTNKHRKALRFFSETKIGATITKELKSWRRDPQRGRFLRMGIWIGVFYGILVTSANISYLMPWAGIIMIVFTSMFSCNIYGFDGSALWLTLTTPDAERIDVRGRQFAWLIAVGPIAILATIIFTISSGLTFIYPWVFTVIPALLGGAAGLIMLFSVFNVVPITDPHRRGRGSVISGDDMNASKMFITTWLMMVMVMATTIPALLVVWLGTLLHVQFLQWLGVLTGICTGMFFAWWFGRIAYLKIEKSGSELLFEMKNGMKTLRDDNKKKGNRKAVELPKKKLAIVVLLVFMGIFFLIHQSVVPLIFEIFSIDDKVRLFFLPRYVPHIVRIPIIILFAILGIASLYKAILIKKKHGKEHRFIKDEM”: the protein production entry is given as “failed”.
Turning to “MKLSSLLNSENSEKNHLQIQQSGQRRIDRMAQSGVGKSSLWSLAEVGWTAGPVTFLAAQGGYYLGFGTWLPNENLIFFVGYTVLMGLIAVLVKFIYKATKGQELDDAKEQLLLVIGSLPDFILSVRDLTLSRMEPESRRYESARILLQKSDLGPQWLTLAVNSIIDSPVIAQAVANIEIYWRAGMYSRIHDINQELSTEISAALASLEPDRPRLARLLEQRLQGKKNTLRSGVEREPFFIERIFSAIEEDNEDIMGLSDVEEVLTLAFELLSGRRIPMLVVNCVGSSQLTIATKKLEKERSKYRIARARGYSQLLALANFLSDSNLLDYSTVAERLPSSDLLQICLETIDRLCQNICDDIGCVQKRENVDMRALKLNHSVLIKALELYQQAYRSSAMVLNEHADFLKDINSWQRINLKYADANTKVSVTGKQGLHIIERQIQLTDADKITVVKKIAHHFDSQSILSKGLRNRTQQSNWQVSNQHVRAAKQLAIDLALALNPCVFISLPEVQGAIYSSNAVDLGSFEPGLSTTTKVGWGESVAKEVKKDMVKASEQIAQAIHRYYGICLGDKELDFMHQTYGMNKEHVIDYYLENEQGEQSSNVFEPRSPLMIPEVKFAWRKTLTLYRQHI”, the protein production entry is given as “failed”.
With “MKLSVCTITFRHHLLCFSEIVEWTQRNGFDGVELWGAHARGLMRTHPEYDADWLRSYGLSVPMLSDYLPTDGDITDTRHRAIELCRIAQHWSARKIRTFAGNRPSAQLSREQRRALAGRIGEIAGIVHDHGIRLLVETHPNTLADNVDSTLGLLADANHPGLGINFDALHVWEGGDDPVLARRTLADFIGHYHLKNVRSRDELGVFAPENVYSAAGSRDGMVPLFDGAMDYEGFLASLADETDAEASLEWFGHDCFETLARDRLAIFARSISTRGRRGSAGTQQARLAESRAAGRAASSKGPSCI” the entry was “failed”; with “MKLTIIRLQHFSDQDRIDLGKIWPSQDLSTLTLDENHRLYAAHFNERLLGAVRVTLRGVEGELSDLCVREVTRRRGVGQYLVEETLRDNPAINSWRVADHGVEDRGVMAAFMQALGFSAQQNGWEKH”, “failed”; with “MKLVICAGPATTGKTAVLRHAIGKLIGRGFKPAFLKIDVQYAEEDEQFAREFAIPTRKTYSGDLCPDHCTVMVLGEALEWAGRQGADVLLVETAGLCLRCSPYVDGGLGVIVLEATSGMNLPLKVGPMLSLADVAVVTKIDRISQAEREVFRARIQDVAPGVRIREANALHGIGIDPLVDQIQATPDVDATLSLRGNPPVGTCTICVGKKEIGWKAHFGVVRSLENQTFYRGELEHHHHHH”, “failed”.
As for “MKLYQHIETLWDYMQLKQDLKPADCLFVMCSNDVRVAEHAAALYHQKLAPLIVFSGGEGRFTDGLFEKSEAETFADIARLAGVPSDAILVETRSTNSGENVRFTEQLLKEKGIQCESIILVQKPFMERRAIATFEKQWQSPYSQVQVSSTAHPFFEYINEDMPLMMVLEALMEDFSRVKSYPEKGFQTKQDIPNQVDSSYQVLLERFGFDLVLEHHHHHH”, the protein production result is listed as “failed”.
With “MKMIETSLASASAALRDRVDEILAAATREDGCAPLSESFLNGLRRADDGHVHSCVMDSHDQVVGVAARDGDSAEVVVDPAFRRQGYGSFLIRHVVSQGVKNVWAHGDGAGAKAVAKALQLEQTRQLLVMAVEGDRLVESAQLQVPSGFRVLALNEAYESIPDIEQQWLRVNNEAFEWHPEQGGWDSARLAQARDTQWFRESDVLFLIDTAKRTVAGFHWTKRHGDLAEGADGEVYVVGLGSAYRRRGLGDLLIRMGLHHLEYEHARRVILYVEGDNESARRAYDALGFHVVESHVTYSPQSSS” the entry was “failed”; with “MKMIQFWFDFASTYSYPAAMQIRQLKDEYRFSLHPFLLGGIFQKQGLNDSPFNAYPVKGQYMWRDLERICQKLDLKFHRPVLFPQNGLLAARIACQYASAPWIFDFICSVYQANFVQNLDIGQPETISQILQNMQLDCNDIIMTSTTDTAKQTLKQNGMIAESLHIFGAPSFVVENELFWGQDRLQDAIDWSQR”, “failed”; with “MKMRKLVKDFGDDYTLIQDSQEVKAILEYIGSEEEPHALFVKVGDGDYEEVWGIDSFVPYNFLEAYRLK”, “not failed”.
As for “MKMTVVGFWGGFPEAGEATSGYLFEHDGFRLLVDCGSGVLAQLQKYITPSDIDAVVLSHYHHDHVADIGVLQYARLITSATKGQLPELPIYGHTFDENGFHSLTHEPHTKGIPYNPEETLQIGPFSISFLKTVHPVTCFAMRITAGNDIVVYSADSSYIPEFIPFTKDADLFICECNMYAHQEAAKAGHMNSTEVASIAKDANVKELLLTHLPHTGNPADLVTEAKQIFSGHITLAHSGYVWNS”, the entry is “not failed”; as for “MKNFLETIEDMILIINREGRLLYANTAVPKKLGYPHEELMSMHILTITSAGKMAEGEKILAELFAGKKESLPLSLEKKEGTSIPAKARIWQGKWHNEPCLFAIIKDLSKEERASSPPFLEPDEIHTGISGAAWCEKPDFASDISCELKDEEPSKPRVLIVDDQLFNLKLLESALKEDYIVMTADNGIEALELATGKSQPDIILLDIIMPVMDGYEVCIRLREMPETRDIPVIFLSALKNEKNEEYALQLGVVDYITKPFSLPIIKGRLRNHVEQKKYRDRQKENSYIDELTQIANRRKFNETVTIEWNRARRNGNSLSVLMIDVDCFKKYNDFYGHLEGDKCLYKIAQTLKSNVKRSSDLVARWGGEEFACVLTDTDRIGAMLVGERLRRAVVKLNIPSEISDVDRVVTASIGVATALPAVDNSLEELLHKADMALYKAKKTGRNCVCTP”, “failed”; as for “MKNHLITVLVCCLFFIGCKDDKANSNQYDPSQPVVFTDFSPKEGGMRTRLYIEGSNFGNDPTKIHITIGGEKTKTIGADGKKIYCMVPSKAFDGIINVRVDGPDGKPIAEHTFEEEFKYTPATIVGTLLRKVDEDNNSAFQEGSFDEGASIPSNDCMVFDPKYKDGDNRLLFSSNHSDGLHLIDLTERTVKRLFPRTGYSTMYSFTFSADGDTLLFTDDHGQDNTTRANIYYSLRRENFRRIRPYNYGRTAYSLVYMDDGTIFYTTWWEGKVYKMIRNGAIPNIDENAEVAFSLSQISAVGGSHTILFRHPSNKFMYMLSDNFGAVFRADYDPVAKTFGNPSIIAGNMNDKSFKEGTGGSARFNKPQFGVFVKNEKYGEGIGPDNDQYDFYFCDRENHCIWKLDPHGVASLAAGRSNENADGKIWGYVDGNPLHEARFNQPAGLAYDPDTDMFYIGDIDNKGIRYMTTE”, “failed”.
With “MKNIIPQALLTMPILSTGLQAQEKQPTPNLVFIMADQYRGDAIGCIGKEPVKTPHLDKLASEGINFTNAISSYPVSSPARGMLMTGMYPIGSKVTGNCNSETAPYGVELSQNARCWSDVLKDQGYNMGYIGKWHLDAPYKPYVDTYNNRGKVAWNEWCPPERRHGFDHWIAYGTYDYHLKPMYWNTTAPRDSFYYVNQWGPEYEASKAIEYINGQKDQKQPFALVVSMNPPHTGYELVPDRYKEIYKDLDVEALCKGRPDIPAKGTEMGDYFRNNIRNYYACITGVDENVGRIIEALKQNNLFDNTIVVFTSDHGICMGAHENAGKDIFYEESMRIPMILSWPDQIKPRKSDPLMIAFADLYPTLLSMMGFSKEIPETVQTFDLSNEVLTGKNKKDLVQPYYFVKFDNHATGYRGLRTDRYTYAVHATDGKIDNVILFDRTNDPHEMNNIASQQLKLTHTFNRQLKTWLEKTNDPFAQYIKLKLEHHHHHH” the entry was “not failed”.
Consider “MKNIVVIGAGNIGSAIAWMLAATGDYRITVADRSADQLANVPAHERVDTEIVDIADRPALEALLKGKFAVLSAAPFHLTAGIAEAAVAVGTHYLDLTEDVESTRKVKALAETAESALIPQCGLAPGFISIVAADLAARFDKLDSVRMRVGALPQYPSNALNYNLTWSTDGLINEYIEPCEAIVEGRLTAVPALEEREEFSLDGVTYEAFNTSGGLGTLCATLEGKVRTMNYRTIRYPGHVAIMKALLNDLNLRNRRDVLKDLFENALPGTMQDVVIVFVTVCGTRNGRFLQETYANKVYAGPVSGRMMSAIQITTAAGICTVLDLLAEGSLPQKGFVRQEEVALPKFLENRFGRYYGAHEPLARVG”, for which the protein production entry is “failed”.
As for “MKNKIILGCLAAAACEILFGLSFIFTKSITAQASGLALISWRFVTAFFFVNLYLLTKRQKVVINGRNIKPLIRIAILNPIIYFICETIGIRMTTASESGAFLACIPVVALIMSSLILKEWPSRWQVVGVATTLIGIIIAVFAAGGSTNFSLVGYFILGLAVVSYALYCVDVEKASQFTSFEITYFMLASGCLTFGLFALSHSFLAGNLKELLTLPWSNPKFAITILYQGLGCSVIGYILSNFAIATIGVNRTASFIGISTIISILAAVVFLGEPFSQLQILAGILVVLGVYVANKN”, the entry is “failed”; as for “MKNKKNNYDLMYFIPLVFLIYPIGGILYYHYPFWTLFFTLAFVGAYLYSVIIRGESKYHMIAWSTMLTYIFYMTIFINSGFIWYIYFLSNLLVYRFRDKLKSFRFISFACTLATVVFLCFFKASDFGDRIMFLIVPIFCIGYMWIAIENRNSEEQREKIAEQNQYINILSAENERNRIGRDLHDSLGHTFAMMTLKTELALKLLEKRNYDKVQKELSELNHISHQSMSEVRQIVSNLKYRTVVEEIDELYRLFQLSNIKLTVVNKLETSQLSPVTQSTITMILKELSNNIVKHAEADSVELSLVRQGATINIEMIDNGCGFTNLDGDELHSIQERLTIVEGTLTILSRSKPTHIQVVLKEV”, “failed”; as for “MKNLHRCKKIFLRVFSRSARRQREPLQDAVLDLHQGAFGGFAPCSAPVQLKRKRPMTKPETTAPTAKAVLPIGLLIAVLAMVAVLLLPLPADLPVAGHRMLAILAFAVVVWISEAVSYEASAIMITALMAFLIGTAPTLQDPSQLYGSSAAIGLALTGFSNSALALVAGALFIAAAMTHTGLDRRIALVTLTRVGTSTRRILIGAIAVTILLSLLVPSATARSACVVPIMMGVIAAFGVDKRSNIAAGLMIVVAQGTSIWNVGIQTAAAQNLLTVGFMDKMLGQRVAWLDWLIAGAPWAVIMSLVLLWLVLKLLPPETDSIPGGKEAVAQSLADIGPMTGPQKRLLTVSVLLLLAWSTEGKLHPFDTTTTTYAGLVILLLPRIGIMTWKDVQSRIPWGTVIVFGVGISLGSALLSTQAGQWLGSQVVAHTGLDQVGPLAVFAILAAFLILIHLGFASATALTSALLPILIAVLQTLPGEFSRLGMTMLLGFVVSYGFILPINAPQNMVCLGTETFNARQFAKVGLLVTLIGYLLMLVFAMTWWKWLGWM”, “failed”.
With “MKNMVIVLTGVTVVAGALLGYVNELTKEPIAQANAKALSDAIAIVVPGFDNNPAEAPETIELEGVTYKIYKATKGGEFIGAAVESSANGFGGALNVLVGFDKEGNIIDYSLLSHAETPGLGSKAADWFKKGGKGDITGMNPGQKALVVNKDGGQIDAITASTITTRAFLKAVNNAYAAYSGQNVDGSSGATQQVSETAADDPKAAKAQCEGTQDCCGQACDSAACKAACGGKCDPANCDKADCKKAECPKQDCKNKK” the entry was “failed”.
